In the NTF2 design screens of Basanta et al. (2020):

Test: protease stability score; higher = more stable; yeast display proteolysis, trypsin and chymotrypsin;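 further: relative to predicted unfolded state with 0 unfolded-like and 1 meaning tenfold more protease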

Question: Which protease stability score does the source give for “DEDDRLAEDLLRLIYHALQTGDEKHLEDFMDPHTQIIIEWNGVRDDTHGREEFSRKFHEQVRELRVHFHQNSIHVINGRAHNDGRLELNINGKIIKLKVILEIQVINGRIKEIRIIVR” here?
Answer: 1.95

Question: With “SEEEQEAIENLHQYIEAIKTGDEDKLRDLFDPNAIIHFDGREIHGRHVFLKKLRHLWLDLKHFHIQHVEPYNGRVEIHGFQHTSVDIDGVRSRRDEHVLIEIIKINGKWKIKRIEWI” as the sequence, how does the protease stability score read?
Answer: 1.68

Question: With “SEEEEHSLKIARQWVENVLTGDEHLLRKLADPDTRIIVDGRHYHGWRQEHKVLEEIRIHDMFEKDVEVQGDKIYMNGTVDGEINGKRTRSDVDLIILVVDGRIKQVEINVH” as the sequence, how does the protease stability score read?
Answer: 1.12

Question: For “SEEEEDAHRNIELLVRYLITGDEETVSRLVDPHVKTDINGQEDHGWQIMSILMEKFKNVTLRLHDIETQGNFAVINMKMRFNGQTFDLHFFARKVNGRWFVEHIKIRQN”, which protease stability score is on record?
Answer: 1.62

Question: Which protease stability score does the source give for “DEREHSVKLAFDKFLEDLHTGNEEMLDRFLDPHVRYHVGDKERHGRENFSRHVAKFLTEYGFKHLHLHMKDWEVQGDKATIEGHVNMHFNGRLIRHNTHLVIWKVNGRWLLESSEER” here?
Answer: 0.699

Question: With “DEKDEKLLRFAHEIIELFLTGNEERFTELLDPRVKLDIDGKNAVGREETQRLWEEILHRIDVMHIRIHRYKAQGNKVILDGLIHIEVGDKNEERHSRLHIHVYDGKIKSIRLEYH” as the sequence, how does the protease stability score read?
Answer: 2.08

Question: Which protease stability score does the source give for “DEHDEMSQIASEILRTVIETGNENELERMVDPHVKSIVNGRTHHGRETLSELKKKLGWERVHNRIHHVEIVGDKVVVRGSIHWNGRDVRVEFIITKVDGRWIIEEIRFH” here?
Answer: 1.07

Question: Which protease stability score does the source give for “SEDEETIEDFVKWFVRALKTGDEDTINEMIDPHVLLHINGKDYHGRELVWRHFEELGIKHTELRHLHTYNGRVELESRLIVDGRVHKVHFHARKVNGRWTVTKVEIR” here?
Answer: 2.61

Question: Which protease stability score does the source give for “SEEDEIAEKILRLYLELFKTGDWRRFEELLDPNVRLEFNGRFYHGREEISRIMKEFHNKFKNVRIELTSFEVQGEKNIMRSSENINGVERETEIYLDIWNGRIQSLIIRVR” here?
Answer: 2.25

Question: Which protease stability score does the source give for “DDHHEELRKFVEELSRARETGDEELIESLIDPHVKINVGDKRLHGRRAVEILLHEWRVHFFHSERMEVYGDKARIEGHMNGEYNGRRHETKLEMYVHKVNGKWILQHFTVE” here?
Answer: 2.17

Question: For “DEEKKVAQTFLELLYRAIHTGDEDEIRRMMDPNYRMEINGKEFHGREDIVHRLVRIEKHLGFKHFHIKDMRTVGDKIDLHTEVIIGDFRWDVHIHIEKVNGRWLQTERRIE”, which protease stability score is on record?
Answer: 0.521

Question: For “DEEEEEMRKMIDEILKDQATGDEDRLKKLLDPNMRSEINGKDLHGREIVTETLAHLFRFLGIKHVHLNDYRIQGDKVEIYGELEINGQKHTNKIHAEKVNGKWVISEMRLH”, which protease stability score is on record?
Answer: 1.43

Question: Which protease stability score does the source give for “DERHHRVKHWVHRFVHAWITGDERELRELLDPNVRLNFEFDGRREENVGRRDVDRFIHEILEKYKNVTIIFRDFEIVGDKFHLHTELIIGDKKHRIHIEINVINGQHEWIKIHIE” here?
Answer: 1.66

Question: For “SDETKRLEEHLKHRFRSMVTGNEEDISRLMDPNAKLIVGDKEFHGREIVLKLLLRWAHEMRLRHEEVEEIHIIGDYVRINGILHMEVGDKSIEIHTVIIILKIDGRWRDKTEHYG”, which protease stability score is on record?
Answer: 0.654

Question: With “EEDQEIFEQAMRELINSNLTGNEHRMQELADPHVRLIVGDKTYIGRESIWRFLFEWRIDHIEIRSYDIQGDKVHVDIEVHMRYGDKSTVSRMELRAEKVNGRWHIHFIRIH” as the sequence, how does the protease stability score read?
Answer: 1.75

Question: Which protease stability score does the source give for “HELEEEAKRAADIWFENLLTGDFDSLRKLVDPHVRMNYNGQEYHGWEEVIRFWKEYLDKVKNLQFHRHHVDVQGEKTTIDTRHIINGRSSEVEIRLLVINGRIQSNEVHEN” here?
Answer: 1.14

Question: For “TEEEKKSEEFLKKLTHAWRTGNEDTLTHMMDPHVRIDFNGQELIGMEHARRLISELRVEDLEIESITHQGNKVHIRGRDLVLFNGQQRTIDTIFILKKVDGRWIIESIEFR”, which protease stability score is on record?
Answer: 1.9

Question: For “DESEESMRHALEEIIESMVTGDEDRLRELADPNVRSKVNGRDIHGWKVVSKLVKELRIRDVKVEDKDREVQGEWMYFHGLFRIDGEFDGRRVDLELDLTIIAHKVNGRWVIRMFKYR”, which protease stability score is on record?
Answer: 1.63

Question: Which protease stability score does the source give for “SETERYNEELLTKWFHAEHTGNFEMLQRLIDPHARIDINGVEHIGWRQFTKSLEDFGIDHIHHLKIDHFRVFNGRLFIDVTTDGTINGQRHKTKVLIRIVLYNGVIHEMSIEWV” here?
Answer: 1.33

Question: For “DEHDELIERIARIYFEDELTGDWDSMMRLMDPRTRDDYNGKERHGWEEVETFFEELRKKFKGMKFHLEHLDVIGNKVHIIARWNVNGRHVQVHIDIIAFDGRVKSFSERVDIR”, which protease stability score is on record?
Answer: 1.15
